Experimental data as given in patent publication US20250388669A1 (published 2025).

How the values were obtained:
PD-L1 = target: T1, PD-L1 (human, UniProt Q9NZQ7 19-238, limits assumed); test: PD-L1 binding (FIG. 14A; method not specified); reference antibody
T1 construct: The reporter assay used Raji cells expressing human PD-L1

PD-1 (binding assay) = PD-1 (binding assay) (UniProt Q15116 25-167, limits assumed); test: FCM or ELISA, graded
CD137 (binding assay) = CD137 (binding assay) (UniProt Q07011 24-186, limits assumed); test: FCM or ELISA, graded

Sequence of PD-1 (binding assay) (Q15116 25-167 limits assumed): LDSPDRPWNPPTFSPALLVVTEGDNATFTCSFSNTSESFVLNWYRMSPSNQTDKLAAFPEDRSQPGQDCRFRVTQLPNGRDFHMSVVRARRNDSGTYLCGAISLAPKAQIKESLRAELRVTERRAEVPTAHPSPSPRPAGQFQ
T1 sequence (Q9NZQ7 19-238 limits assumed): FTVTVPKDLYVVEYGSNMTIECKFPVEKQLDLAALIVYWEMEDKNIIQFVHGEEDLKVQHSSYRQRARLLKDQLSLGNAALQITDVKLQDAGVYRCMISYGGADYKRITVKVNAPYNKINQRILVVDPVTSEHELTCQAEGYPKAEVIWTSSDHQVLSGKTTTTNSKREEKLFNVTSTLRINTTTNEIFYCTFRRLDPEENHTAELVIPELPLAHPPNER

B1: Ly076 (antibody, V domains shown)
VH: QVQLVQSGAEVKKPGASVKVSCKASGYTFTDFWMSWVRQAPGQGLEWMGQIYPNTGTTHSNEKFKGRVTMTRDTSTSTVYMELSSLRSEDTAVYYCARSYHISTTPNWFAYWGQGTLVTVSS
VL: DIQMTQSPSSLSASVGDRVTITCKASQNVYKKLEWYQQKPGKVPKVLIYHTNILQTGVPSRFSGSGSGTDYTLTISSLQPEDVATYYCYQWNSGPTFGGGTKVEIK
notes: Parent mAb; also called parent anti-PD-L1 antibody
Q: Does B1 bind (PD-L1)?
A: binds

B2: Ly2396 (bispecific antibody, human IgG1, kappa)
heavy 1: QVTLKESGPALVKPTQTLTLTCTFSGFSLSTSGTCVSWIRQPPGKALEWLATICWEDSKGYNPSLKSRLTISKDTSKNQAVLTMTNMDPVDTATYYCARREDSGYFWFPYWGQGTLVTVSSASTKGPSVFPLAPSSKSTSGGTAALGCLVKDYFPEPVTVSWNSGALTSGVHTFPAVLQSSGLYSLSSVVTVPSSSLGTQTYICNVNHKPSNTKVDKKVEPKSCDKTHTCPPCPAPEAAGPSVFLFPPKPKDTLMISRTPEVTCVVVDVSHEDPEVKFNWYVDGVEVHNAKTKPREEQYNSTYRVVSVLTVLHQDWLNGKEYKCKVSNKALPAPIEKTISKAKGQPREPQVYTLPPSREEMTKNQVSLWCLVKGFYPSDIAVEWESNGQPENNYKTTPPVLDSDGSFFLYSKLTVDKSRWQQGNVFSCSVMHEALHNHYTQKSLSLSPGGGGGSGGGGSGGGGSGGGGSQVQLVQSGAEVKKPGASVKVSCKASGYTFAGFEMHWVRQAPGQGLEWMGAIDPKTGGTDYNQKFKDRVTMTRDTSISTAYMELSRLRSDDTAVYYCARDLGYFDVWGQGTLVTVSS
heavy 2: QVTLKESGPALVKPTQTLTLTCTFSGFSLSTSGTCVSWIRQPPGKALEWLATICWEDSKGYNPSLKSRLTISKDTSKNQAVLTMTNMDPVDTATYYCARREDSGYFWFPYWGQGTLVTVSSASTKGPSVFPLAPSSKSTSGGTAALGCLVKDYFPEPVTVSWNSGALTSGVHTFPAVLQSSGLYSLSSVVTVPSSSLGTQTYICNVNHKPSNTKVDKKVEPKSCDKTHTCPPCPAPEAAGPSVFLFPPKPKDTLMISRTPEVTCVVVDVSHEDPEVKFNWYVDGVEVHNAKTKPREEQYNSTYRVVSVLTVLHQDWLNGKEYKCKVSNKALPAPIEKTISKAKGQPREPQVYTLPPSREEMTKNQVSLSCAVKGFYPSDIAVEWESNGQPENNYKTTPPVLDSDGSFFLVSKLTVDKSRWQQGNVFSCSVMHEALHNRFTQKSLSLSPGGGGGSGGGGSGGGGSGGGGSDIQMTQSPSSLSASVGDRVTITCRASQDIRSNLNWYQQKPGGAVKLLIYYTSRLHSGVPSRFSGSGSGTDYTLTISSLQPEDFATYFCQQSEKLPRTFGGGTKVEIR
light: NIQMTQSPSSLSASVGDRVTITCKAGQNVNNYLAWYQQKPGKAPKVLIFNANSLQTGVPSRFSGSGSGTDFTLTISSLQPEDFATYYCQQYNSWPTFGGGTKVEIKRTVAAPSVFIFPPSDEQLKSGTASVVCLLNNFYPREAKVQWKVDNALQSGNSQESVTEQDSKDSTYSLSSTLTLSKADYEKHKVYACEVTHQGLSSPVTKSFNRGEC
notes: PD-1 Fabs (Ly516) x terminal CD137 Fv
Q: Which results are given for B2?
A: binding result (PD-1 (binding assay)): binds; binding result (CD137 (binding assay)): binds
